Results as given in patent publication US20020102250A1, “Recombinant S. aureus peptide deformylase” (priority 2000, published 2002).

B1: E. coli pdf: Iron form of E. coli peptide deformylase, C-terminally His tagged, known to be unstable, used for comparison (protein, UniProt P0A6K3 2-169, looked up)
Peptide deformylase: SVLQVLHIPDERLRKVAKPVEEVNAEIQRIVDDMFETMYAEEGIGLAATQVDIHQRIIVIDVSENRDERLVLINPELLEKSGETGIEEGCLSIPEQRALVPRAEKVKIRALDRDGKPFELEADGLLAICIQHEMDHLVGKLFMDYLSPLKQQRIRQKVEKLDRLKARA
modifications: C-terminal His tag; iron form
B2: Fe complex of pdf: Fe complex of peptide deformylase of the prior art (background, E. coli enzyme context) (protein, UniProt P0A6K3 2-169, looked up)
Peptide deformylase: B1 Peptide deformylase
modifications: iron form

Legend:
[1] = Stability of Fe forms of pdf at serial dilutions with or without catalase; pdf assay coupled to Vibrio aminopeptidase; type: biochemical
Experimental: A description of the optimized assay conditions is as follows. The final assay solution contained 50 mM Hepes, 10 mM NaCl, pH 7.0, 0.1% K-casein (Sigma Chemical Co.; St. Louis, Mo.), 100 micromolar formyl-Met-Leu-p-nitroanilide (prepared by standard methods and commercially available from Bachem Bioscience, Inc.; Philadelphia, Pa.; Catalog No. L2030), 5 nanograms of pdf protein (iron form) or 100 nanograms of pdf protein (zinc form), and V. proteolytica aminopeptidase.
(A) 25 microliters of inhibitor in 15% dimethyl sulfoxide (DMSO) (maximum) was pipetted into 96 well microtiter plates (Immulon II from Dynex Technologies; Chantilly, Va.).
(B) 100 microliters of bulk assay solution was pipetted next. This solution is described as follows, and required that the reagents be mixed in the order shown below (enough for 100 assays):
(C) The plate was preincubated at room temperature for 10 minutes.
(D) Finally, 25 microliters of 0.6 mM f-Met-Leu-p-nitroanilide (prepared by adding 120 microliters of 20 mM stock in 100% MeOH to 3,880 microliters of assay buffer) was added.
(E) Each plate was examined in a SpectraMax 250 reader (Molecular Devices Corp.; Sunnyvale, Calif.) using an absorbance of 405 nm. Time points were taken every 20 seconds over a 30 minute time course at 25° C. Since oxidation might be an issue, the plate was mixed to begin the reaction, but not prior to subsequent time points. Addition of anti-oxidant reagents is not required, and preferably reducing agents are not added. Each line was checked for linearity over time and the resulting R^2 value was expected to be greater than about 0.98 for assay validity.
Expression of the iron form of S. aureus or E. coli pdf (known to be unstable) in E. coli was monitored after the addition of 1.6 mM FeCl3 in the media (Luria broth). Incubation was allowed to proceed for 1 hour prior to the addition of IPTG (0.4 mM). Induction continued for 3 hours at 37° C. Cells were isolated and extracted in the presence of catalase (10 micrograms/ml). The purpose of the catalase was to act as an oxygen scavenger to prevent the inactivation of the Fe form of the E. coil pdf. The extracts were subjected to Ni-NTA chromatography for the purification of the C-terminally His tagged versions of both the E. coli and S. aureus pdf proteins. The purified proteins (concentrated to at least 1 mg/ml by ultrafiltration using a membrane available from Amicon; Bedford, Mass.) were stored in the presence of 10 micrograms/ml (minimum concentration) catalase. To examine the stability of the Fe forms of the pdf proteins, dilutions of the proteins were made in the presence or absence of catalase, followed by assays of the enzymes (serially diluted) in the presence or absence of catalase (at 100 micrograms/ml). Assays were run using formyl-Met-Leu-p-nitroanilide as substrate, coupled to the Vibrio aminopeptidase.
The results, which depict linear reactions catalyzed by pdf, are shown in FIG. 2 for S. aureus pdf and FIG. 3 for E. coli pdf. […] The rates shown are in mOD/minute, and each line represents a different concentration of the pdf in nanogram amounts as listed in the legend. […] This is consistent with a significant loss of enzyme activity in the absence of catalase only for the E. coli enzyme. See Rajagopalan et al., J. Amer. Chem. Soc., 119:12418-19 (1997).

[2] = Fe complex, as reported in prior work; cited from earlier work

Molecule | Vmax ([1]; 125 ng pdf, with added catalase) | Vmax ([1]; 125 ng pdf, without added catalase) | Vmax ([1]; 250 ng pdf, with added catalase) | Vmax ([1]; 250 ng pdf, without added catalase) | Vmax ([1]; 500 ng pdf, with added catalase) | Vmax ([1]; 500 ng pdf, without added catalase) | Vmax ([1]; 1000 ng pdf, with added catalase) | Vmax ([1]; 1000 ng pdf, without added catalase) | pdf activity as a function of dilution, with versus without catalase in the assay solution ([1]; catalase at 100 micrograms/ml or absent) | half-life [2]
B1 | 8.4 mOD/minute | 2.4 mOD/minute | 19.2 mOD/minute | 3.7 mOD/minute | 45.1 mOD/minute | 6.5 mOD/minute | 133 mOD/minute | 18.9 mOD/minute | rapidly loses activity | –
B2 | – | – | – | – | – | – | – | – | – | around 30 seconds
